What was measured:
Thymosin alpha-1 (human) = Thymosin alpha-1 (human) (UniProt P06454); test: PIF affinity column + LC-MS/MS, CD4+ cell lysate
[1] = molecular target: Tropomyosin alpha-4 chain (human) (UniProt P67936); test: PIF affinity column + LC-MS/MS, CD4+ cell lysate
Calreticulin (human) = Calreticulin (human) (UniProt P27797); test: PIF affinity column + LC-MS/MS, CD4+ cell lysate
[2] = molecular target: Acidic leucine-rich nuclear phosphoprotein 32 family member A (human) (UniProt P39687); test: PIF affinity column + LC-MS/MS, CD4+ cell lysate
[3] = molecular target: Cartilage oligomeric matrix protein (human) (UniProt P49747); test: PIF affinity column + LC-MS/MS, CD4+ cell lysate
Cartilage oligomeric matrix protein (human), sequence (P49747 21-757 limits assumed): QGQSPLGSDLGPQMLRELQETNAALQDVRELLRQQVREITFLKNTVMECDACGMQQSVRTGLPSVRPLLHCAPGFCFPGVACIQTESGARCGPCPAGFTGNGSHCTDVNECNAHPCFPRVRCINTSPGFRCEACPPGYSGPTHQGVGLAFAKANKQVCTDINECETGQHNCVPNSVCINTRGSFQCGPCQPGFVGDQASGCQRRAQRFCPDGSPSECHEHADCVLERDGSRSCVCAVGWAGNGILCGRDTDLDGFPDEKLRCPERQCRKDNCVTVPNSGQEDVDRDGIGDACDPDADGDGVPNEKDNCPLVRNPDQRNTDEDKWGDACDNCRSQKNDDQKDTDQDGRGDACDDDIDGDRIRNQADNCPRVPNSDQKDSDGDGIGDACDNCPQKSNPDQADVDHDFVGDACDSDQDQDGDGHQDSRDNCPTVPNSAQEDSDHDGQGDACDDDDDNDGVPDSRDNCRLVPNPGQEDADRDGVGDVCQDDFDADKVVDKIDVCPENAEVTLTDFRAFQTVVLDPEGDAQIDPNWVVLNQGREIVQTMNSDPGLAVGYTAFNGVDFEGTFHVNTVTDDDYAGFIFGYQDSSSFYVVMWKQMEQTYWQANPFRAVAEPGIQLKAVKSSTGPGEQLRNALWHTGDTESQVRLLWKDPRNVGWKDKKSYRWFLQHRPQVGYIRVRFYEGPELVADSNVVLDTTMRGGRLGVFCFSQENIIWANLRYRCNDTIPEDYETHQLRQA

[4] = molecular target: Serine/arginine-rich-splicing factor 2 (human) (UniProt Q01130); test: PIF affinity column + LC-MS/MS, CD4+ cell lysate
[5] = molecular target: Actin, cytoplasmic 1 (human) (UniProt P60709); test: PIF affinity column + LC-MS/MS, CD4+ cell lysate
[6] = molecular target: Isoform 2 of Protein SET (human) (UniProt Q01105); test: PIF affinity column + LC-MS/MS, CD4+ cell lysate
Isoform 2 of Protein SET (human), sequence (Q01105 other isoform, or with tags, fused parts or gaps limits assumed): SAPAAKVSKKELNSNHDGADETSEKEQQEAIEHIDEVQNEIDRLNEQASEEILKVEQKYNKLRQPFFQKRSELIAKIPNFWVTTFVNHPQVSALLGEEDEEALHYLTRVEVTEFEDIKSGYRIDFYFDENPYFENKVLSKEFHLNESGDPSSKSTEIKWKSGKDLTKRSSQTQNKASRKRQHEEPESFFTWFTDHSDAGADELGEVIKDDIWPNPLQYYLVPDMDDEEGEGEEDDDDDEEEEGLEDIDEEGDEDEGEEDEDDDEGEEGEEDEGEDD

Cofilin-1 (human) = Cofilin-1 (human) (UniProt P23528); test: PIF affinity column + LC-MS/MS, CD4+ cell lysate
Serum albumin (human) = Serum albumin (human) (UniProt P02768); test: PIF affinity column + LC-MS/MS, CD4+ cell lysate
[7] = molecular target: Protein disulfide-isomerase A4 (human) (UniProt P13667); test: PIF affinity column + LC-MS/MS, CD14+ cell lysate
[8] = molecular target: Tropomyosin alpha-4 chain (human) (UniProt P67936); test: PIF affinity column + LC-MS/MS, CD14+ cell lysate
Annexin A1 (human) = Annexin A1 (human) (UniProt P04083); test: PIF affinity column + LC-MS/MS, CD14+ cell lysate
Annexin A1 (human), sequence (P04083 2-346 limits assumed): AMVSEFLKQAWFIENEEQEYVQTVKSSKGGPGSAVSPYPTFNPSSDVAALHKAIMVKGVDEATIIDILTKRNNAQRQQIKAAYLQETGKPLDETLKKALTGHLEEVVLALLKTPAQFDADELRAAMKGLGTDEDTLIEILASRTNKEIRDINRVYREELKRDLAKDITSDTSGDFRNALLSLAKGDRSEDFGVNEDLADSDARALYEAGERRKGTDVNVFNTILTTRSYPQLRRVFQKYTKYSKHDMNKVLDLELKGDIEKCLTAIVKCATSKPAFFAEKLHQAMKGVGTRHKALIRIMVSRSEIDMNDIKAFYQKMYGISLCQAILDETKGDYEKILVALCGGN

[9] = molecular target: Isoform SV of 14-3-3 protein epsilon (human) (UniProt P62258); test: PIF affinity column + LC-MS/MS, CD14+ cell lysate
[10] = molecular target: 78 kDa glucose-regulated protein (human) (UniProt P11021); test: PIF affinity column + LC-MS/MS, CD14+ cell lysate
[11] = molecular target: Isoform Short of 14-3-3 protein beta/alpha (human) (UniProt P31946); test: PIF affinity column + LC-MS/MS, CD14+ cell lysate
Talin-1 (human) = Talin-1 (human) (UniProt Q9Y490); test: PIF affinity column + LC-MS/MS, CD14+ cell lysate
[12] = molecular target: Nuclear autoantigenic sperm protein (human) (UniProt P49321); test: PIF affinity column + LC-MS/MS, CD14+ cell lysate
Nuclear autoantigenic sperm protein (human), sequence (P49321 2-788 limits assumed): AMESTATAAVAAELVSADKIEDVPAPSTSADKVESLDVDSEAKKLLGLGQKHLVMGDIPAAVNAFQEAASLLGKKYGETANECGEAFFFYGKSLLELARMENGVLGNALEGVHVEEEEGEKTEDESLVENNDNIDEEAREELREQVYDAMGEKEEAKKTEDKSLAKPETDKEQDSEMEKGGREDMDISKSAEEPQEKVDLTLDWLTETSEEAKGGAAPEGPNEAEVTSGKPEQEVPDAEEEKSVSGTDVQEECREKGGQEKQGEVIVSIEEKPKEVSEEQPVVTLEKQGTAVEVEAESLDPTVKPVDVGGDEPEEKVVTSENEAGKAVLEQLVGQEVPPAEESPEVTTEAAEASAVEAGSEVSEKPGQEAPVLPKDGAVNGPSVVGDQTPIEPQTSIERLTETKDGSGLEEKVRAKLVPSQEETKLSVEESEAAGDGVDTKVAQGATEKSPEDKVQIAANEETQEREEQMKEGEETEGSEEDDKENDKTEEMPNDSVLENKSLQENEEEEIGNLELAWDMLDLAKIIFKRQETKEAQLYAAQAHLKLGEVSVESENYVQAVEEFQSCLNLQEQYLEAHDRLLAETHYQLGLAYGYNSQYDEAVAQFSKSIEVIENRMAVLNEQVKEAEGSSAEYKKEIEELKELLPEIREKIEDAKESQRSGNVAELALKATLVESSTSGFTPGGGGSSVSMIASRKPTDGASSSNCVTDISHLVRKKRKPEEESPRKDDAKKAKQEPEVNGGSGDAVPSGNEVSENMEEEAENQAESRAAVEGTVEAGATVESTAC

[13] = molecular target: Isoform 2 of Ras suppressor protein 1 (human) (UniProt Q15404); test: PIF affinity column + LC-MS/MS, CD14+ cell lysate
Isoform 2 of Ras suppressor protein 1 (human), sequence (Q15404 54-277 limits assumed): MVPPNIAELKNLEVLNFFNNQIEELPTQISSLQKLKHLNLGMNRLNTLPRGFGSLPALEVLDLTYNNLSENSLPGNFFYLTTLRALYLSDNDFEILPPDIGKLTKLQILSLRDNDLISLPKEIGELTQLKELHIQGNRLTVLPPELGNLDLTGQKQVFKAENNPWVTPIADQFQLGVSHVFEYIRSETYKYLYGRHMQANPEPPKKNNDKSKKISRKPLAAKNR

Tropomodulin-3 (human) = Tropomodulin-3 (human) (UniProt Q9NYL9); test: PIF affinity column + LC-MS/MS, CD14+ cell lysate
Tropomodulin-3 (human), sequence (Q9NYL9 whole entry): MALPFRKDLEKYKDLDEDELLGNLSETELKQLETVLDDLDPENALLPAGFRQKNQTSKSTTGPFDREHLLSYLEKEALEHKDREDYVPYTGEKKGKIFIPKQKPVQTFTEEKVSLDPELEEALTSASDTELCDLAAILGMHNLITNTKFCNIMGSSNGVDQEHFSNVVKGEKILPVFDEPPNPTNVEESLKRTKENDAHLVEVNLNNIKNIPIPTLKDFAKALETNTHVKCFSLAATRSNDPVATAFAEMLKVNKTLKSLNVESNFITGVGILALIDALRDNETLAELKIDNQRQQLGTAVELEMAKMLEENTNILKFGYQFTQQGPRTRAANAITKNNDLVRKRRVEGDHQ

Matrin-3 (human) = Matrin-3 (human) (UniProt A8MXP9); test: PIF affinity column + LC-MS/MS, CD14+ cell lysate
Gelsolin (human) = Gelsolin (human) (UniProt P06396); test: PIF affinity column + LC-MS/MS, CD14+ cell lysate
[14] = molecular target: Isoform 2 of Heat shock protein HSP 90-alpha (human) (UniProt P07900); test: PIF affinity column + LC-MS/MS, CD14+ cell lysate
Coronin-1A (human) = Coronin-1A (human) (UniProt P31146); test: PIF affinity column + LC-MS/MS, CD14+ cell lysate
[15] = molecular target: Bridging integrator 2 (human) (UniProt Q9UBW5); test: PIF affinity column + LC-MS/MS, CD14+ cell lysate
[16] = molecular target: 14-3-3 protein theta (human) (UniProt P27348); test: PIF affinity column + LC-MS/MS, CD14+ cell lysate
14-3-3 protein theta (human), sequence (P27348 whole entry): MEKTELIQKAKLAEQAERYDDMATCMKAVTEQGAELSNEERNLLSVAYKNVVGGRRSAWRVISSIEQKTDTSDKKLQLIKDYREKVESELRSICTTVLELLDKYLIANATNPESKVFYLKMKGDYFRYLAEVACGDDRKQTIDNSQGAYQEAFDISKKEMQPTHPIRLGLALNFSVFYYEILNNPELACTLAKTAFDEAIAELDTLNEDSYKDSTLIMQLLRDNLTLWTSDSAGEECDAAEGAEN

[17] = molecular target: Histone-binding protein RBBP7 (human) (UniProt E9PC52); test: PIF affinity column + LC-MS/MS, CD14+ cell lysate
Histone-binding protein RBBP7 (human), sequence (E9PC52 entry or part of it limits assumed, form in doubt): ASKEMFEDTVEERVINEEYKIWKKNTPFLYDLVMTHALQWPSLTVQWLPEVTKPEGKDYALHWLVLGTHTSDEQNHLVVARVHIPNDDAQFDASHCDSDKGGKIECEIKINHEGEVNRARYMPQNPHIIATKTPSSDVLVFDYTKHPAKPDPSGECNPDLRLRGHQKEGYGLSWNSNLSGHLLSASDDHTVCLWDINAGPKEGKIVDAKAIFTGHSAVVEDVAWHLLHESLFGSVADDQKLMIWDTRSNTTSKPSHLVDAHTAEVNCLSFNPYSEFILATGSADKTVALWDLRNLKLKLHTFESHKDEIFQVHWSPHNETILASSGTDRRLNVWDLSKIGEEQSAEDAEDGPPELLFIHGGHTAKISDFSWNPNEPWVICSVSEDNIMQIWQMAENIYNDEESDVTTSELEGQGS

Endoplasmin (human) = Endoplasmin (human) (UniProt P14625); test: PIF affinity column + LC-MS/MS, CD14+ cell lysate
Endoplasmin (human), sequence (P14625 22-803 limits assumed): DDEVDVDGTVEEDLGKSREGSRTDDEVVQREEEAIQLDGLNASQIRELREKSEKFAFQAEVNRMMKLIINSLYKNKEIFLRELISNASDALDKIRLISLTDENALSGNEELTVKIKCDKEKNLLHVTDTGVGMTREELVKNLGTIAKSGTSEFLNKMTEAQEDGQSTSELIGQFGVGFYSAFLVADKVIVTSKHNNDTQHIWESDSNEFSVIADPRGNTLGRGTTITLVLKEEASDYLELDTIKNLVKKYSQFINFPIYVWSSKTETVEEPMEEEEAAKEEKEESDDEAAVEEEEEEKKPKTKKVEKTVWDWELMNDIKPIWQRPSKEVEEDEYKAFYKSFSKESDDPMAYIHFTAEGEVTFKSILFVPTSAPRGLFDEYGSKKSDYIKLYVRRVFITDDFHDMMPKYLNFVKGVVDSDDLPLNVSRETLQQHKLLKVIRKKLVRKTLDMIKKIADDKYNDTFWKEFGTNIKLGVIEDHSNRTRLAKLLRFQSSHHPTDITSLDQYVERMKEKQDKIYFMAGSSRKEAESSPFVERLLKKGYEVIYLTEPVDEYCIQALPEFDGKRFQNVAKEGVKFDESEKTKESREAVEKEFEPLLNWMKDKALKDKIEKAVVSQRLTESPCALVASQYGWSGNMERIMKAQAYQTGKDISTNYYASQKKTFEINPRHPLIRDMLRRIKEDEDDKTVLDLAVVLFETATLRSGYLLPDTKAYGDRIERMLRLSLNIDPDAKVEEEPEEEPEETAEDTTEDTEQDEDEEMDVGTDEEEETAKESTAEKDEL

[18] = molecular target: Actin, cytoplasmic 2 (human) (UniProt P63261); test: PIF affinity column + LC-MS/MS, CD14+ cell lysate

Calreticulin (human), sequence (P27797 18-417 limits assumed): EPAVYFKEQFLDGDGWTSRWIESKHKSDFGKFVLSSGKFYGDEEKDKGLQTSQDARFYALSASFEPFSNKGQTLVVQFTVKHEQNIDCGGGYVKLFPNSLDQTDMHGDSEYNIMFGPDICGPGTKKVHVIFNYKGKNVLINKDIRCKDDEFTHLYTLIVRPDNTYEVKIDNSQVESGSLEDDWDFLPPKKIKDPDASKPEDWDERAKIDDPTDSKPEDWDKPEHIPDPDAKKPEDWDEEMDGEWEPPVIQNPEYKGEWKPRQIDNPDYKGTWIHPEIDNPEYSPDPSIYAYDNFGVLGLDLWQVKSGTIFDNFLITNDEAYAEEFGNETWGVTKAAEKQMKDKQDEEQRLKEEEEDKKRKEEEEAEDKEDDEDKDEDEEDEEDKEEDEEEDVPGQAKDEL
Tropomyosin alpha-4 chain (human), sequence (P67936 2-248 limits assumed): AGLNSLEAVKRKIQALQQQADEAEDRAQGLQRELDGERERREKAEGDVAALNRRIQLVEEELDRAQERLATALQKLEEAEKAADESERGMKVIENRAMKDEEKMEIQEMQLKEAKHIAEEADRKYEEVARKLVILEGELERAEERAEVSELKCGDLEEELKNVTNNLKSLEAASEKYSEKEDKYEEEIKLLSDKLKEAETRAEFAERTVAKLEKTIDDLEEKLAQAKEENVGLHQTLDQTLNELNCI
Thymosin alpha-1 (human), sequence (P06454 other isoform, or with tags, fused parts or gaps limits assumed): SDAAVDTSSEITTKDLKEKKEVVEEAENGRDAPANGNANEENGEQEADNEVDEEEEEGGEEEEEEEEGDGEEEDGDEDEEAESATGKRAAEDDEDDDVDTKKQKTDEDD

PIF-resin (PIF15 affinity ligand on agarose) (peptide)
Ave (Thymosin alpha-1 (human)): 5 | Inject 1 (Thymosin alpha-1 (human)): 4 | Inject 2 (Thymosin alpha-1 (human)): 5 | Ave [1]: 4 | Inject 1 [1]: 4 | Inject 2 [1]: 4 | Inject 3 [1]: 4 | Ave (Calreticulin (human)): 4 | Inject 1 (Calreticulin (human)): 4 | Inject 2 (Calreticulin (human)): 4 | Inject 3 (Calreticulin (human)): 4 | Ave [2]: 1 | Inject 1 [2]: 1 | Inject 2 [2]: 1 | Inject 3 [2]: 1 | Ave [3]: 10 | Inject 1 [3]: 10 | Inject 2 [3]: 10 | Inject 3 [3]: 11 | Inject 1 [4]: 1 | Ave [5]: 2 | Inject 1 [5]: 2 | Inject 2 [5]: 2 | Inject 3 [5]: 2 | Ave [6]: 4 | Inject 2 [6]: 4 | Inject 3 [6]: 4 | Ave (Cofilin-1 (human)): 1 | Inject 1 (Cofilin-1 (human)): 1 | Inject 2 (Cofilin-1 (human)): 1 | Inject 3 (Cofilin-1 (human)): 1 | Ave (Serum albumin (human)): 8 | Inject 1 (Serum albumin (human)): 4 | Inject 3 (Serum albumin (human)): 12 | Inject 1 [7]: 4 | Inject 2 [7]: 1 | Ave [8]: 8 | Inject 1 [8]: 8 | Inject 3 [8]: 8 | Ave (Annexin A1 (human)): 1 | Inject 1 (Annexin A1 (human)): 0 | Inject 2 (Annexin A1 (human)): 0 | Inject 1 [9]: 4 | Inject 2 [9]: 4 | Ave [10]: 4 | Inject 3 [11]: 4 | Inject 1 (Talin-1 (human)): 5 | Inject 3 (Talin-1 (human)): 8 | Ave [12]: 1 | Inject 2 [12]: 0 | Inject 3 [12]: 1 | Ave [13]: 1 | Inject 1 [13]: 0 | Inject 2 [13]: 1 | Ave (Tropomodulin-3 (human)): 1 | Inject 1 (Tropomodulin-3 (human)): 1 | Inject 3 (Tropomodulin-3 (human)): 1 | Ave (Matrin-3 (human)): 1 | Inject 1 (Matrin-3 (human)): 1 | Inject 3 (Matrin-3 (human)): 1 | Inject 2 (Gelsolin (human)): 1 | Inject 3 (Gelsolin (human)): 1 | Ave [14]: 1 | Inject 1 [14]: 1 | Inject 3 [14]: 1 | Inject 3 (Coronin-1A (human)): 1 | Ave [15]: 1 | Inject 1 [15]: 1 | Inject 3 [15]: 0 | Ave [16]: 1 | Inject 1 [16]: 1 | Inject 2 [16]: 1 | Ave [17]: 1 | Inject 2 [17]: 0 | Inject 3 [17]: 1 | Ave (Endoplasmin (human)): 1 | Inject 1 (Endoplasmin (human)): 0 | Inject 3 (Endoplasmin (human)): 1 | Ave [18]: 7 | Inject 1 [18]: 6 | Inject 2 [18]: 7 | Inject 3 [18]: 7

Reference: patent US20230013244A1 (BioIncept, LLC, priority 2014, published 2023)
